Results from the supplement of paper PMC10065799, “High-throughput profiling of sequence recognition by tyrosine kinases and SH2 domains using bacterial peptide display” (eLife, 2023).

Tests used:
[1] = test system: AncSZ; experiment: phosphorylation enrichment, bacterial display (enrichment ratio); higher = better substrate or ligand; peptides without Tyr show the background
[2] = target: EPHB1 (UniProt P54762); experiment: as above
[3] = target: EPHB2 (UniProt P29323); experiment: as above
[4] = target: FGFR1 (UniProt P11362); experiment: as above
Chain of FGFR1 (P11362 whole entry, looked up): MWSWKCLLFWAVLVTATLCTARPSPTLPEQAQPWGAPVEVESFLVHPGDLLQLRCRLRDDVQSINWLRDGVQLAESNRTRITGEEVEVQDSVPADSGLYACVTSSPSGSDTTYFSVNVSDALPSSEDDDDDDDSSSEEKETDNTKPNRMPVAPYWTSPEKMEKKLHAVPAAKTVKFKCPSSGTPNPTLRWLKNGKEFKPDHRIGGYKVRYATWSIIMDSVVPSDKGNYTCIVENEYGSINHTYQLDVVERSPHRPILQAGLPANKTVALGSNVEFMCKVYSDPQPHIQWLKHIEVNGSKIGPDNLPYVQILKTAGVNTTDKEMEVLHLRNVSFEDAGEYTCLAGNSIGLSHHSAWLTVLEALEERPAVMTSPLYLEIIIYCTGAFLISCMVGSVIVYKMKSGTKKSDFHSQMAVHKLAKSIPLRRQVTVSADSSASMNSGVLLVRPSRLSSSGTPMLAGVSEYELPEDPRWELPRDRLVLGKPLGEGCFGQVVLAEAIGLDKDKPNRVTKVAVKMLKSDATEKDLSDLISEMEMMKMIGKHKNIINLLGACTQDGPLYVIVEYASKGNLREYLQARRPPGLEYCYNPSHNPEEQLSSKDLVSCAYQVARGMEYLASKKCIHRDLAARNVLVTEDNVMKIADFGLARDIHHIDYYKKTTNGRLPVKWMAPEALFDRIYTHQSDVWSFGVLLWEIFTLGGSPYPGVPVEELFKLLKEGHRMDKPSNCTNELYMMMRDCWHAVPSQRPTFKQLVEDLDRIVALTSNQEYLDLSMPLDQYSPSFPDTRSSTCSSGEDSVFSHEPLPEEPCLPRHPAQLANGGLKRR

[5] = target: FGFR3 (UniProt P22607); experiment: as above
Chain of FGFR3 (P22607 whole entry, looked up): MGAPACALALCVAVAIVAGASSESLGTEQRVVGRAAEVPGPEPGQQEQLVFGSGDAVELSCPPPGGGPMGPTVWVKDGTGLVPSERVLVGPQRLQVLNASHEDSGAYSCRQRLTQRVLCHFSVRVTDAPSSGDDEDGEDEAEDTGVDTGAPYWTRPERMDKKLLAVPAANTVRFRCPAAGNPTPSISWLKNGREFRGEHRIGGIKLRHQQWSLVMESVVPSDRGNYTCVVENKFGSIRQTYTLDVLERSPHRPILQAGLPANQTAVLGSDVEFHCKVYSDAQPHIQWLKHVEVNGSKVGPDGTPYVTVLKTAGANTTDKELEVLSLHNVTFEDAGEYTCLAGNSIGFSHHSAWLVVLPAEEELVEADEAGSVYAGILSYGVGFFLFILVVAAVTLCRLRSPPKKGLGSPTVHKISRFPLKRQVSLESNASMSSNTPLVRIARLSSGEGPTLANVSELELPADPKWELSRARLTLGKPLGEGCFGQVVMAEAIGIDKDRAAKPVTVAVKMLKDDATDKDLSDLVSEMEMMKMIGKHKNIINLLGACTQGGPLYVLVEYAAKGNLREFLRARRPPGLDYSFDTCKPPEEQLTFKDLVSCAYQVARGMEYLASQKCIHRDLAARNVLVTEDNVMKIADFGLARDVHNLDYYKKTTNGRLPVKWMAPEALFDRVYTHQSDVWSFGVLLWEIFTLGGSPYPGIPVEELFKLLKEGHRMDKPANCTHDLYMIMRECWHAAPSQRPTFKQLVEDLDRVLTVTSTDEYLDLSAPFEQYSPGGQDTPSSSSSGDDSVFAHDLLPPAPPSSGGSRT

[6] = test system: Fer (mouse); experiment: as above
[7] = target: Fes (UniProt P07332); experiment: as above
Chain of Fes (P07332 whole entry, looked up): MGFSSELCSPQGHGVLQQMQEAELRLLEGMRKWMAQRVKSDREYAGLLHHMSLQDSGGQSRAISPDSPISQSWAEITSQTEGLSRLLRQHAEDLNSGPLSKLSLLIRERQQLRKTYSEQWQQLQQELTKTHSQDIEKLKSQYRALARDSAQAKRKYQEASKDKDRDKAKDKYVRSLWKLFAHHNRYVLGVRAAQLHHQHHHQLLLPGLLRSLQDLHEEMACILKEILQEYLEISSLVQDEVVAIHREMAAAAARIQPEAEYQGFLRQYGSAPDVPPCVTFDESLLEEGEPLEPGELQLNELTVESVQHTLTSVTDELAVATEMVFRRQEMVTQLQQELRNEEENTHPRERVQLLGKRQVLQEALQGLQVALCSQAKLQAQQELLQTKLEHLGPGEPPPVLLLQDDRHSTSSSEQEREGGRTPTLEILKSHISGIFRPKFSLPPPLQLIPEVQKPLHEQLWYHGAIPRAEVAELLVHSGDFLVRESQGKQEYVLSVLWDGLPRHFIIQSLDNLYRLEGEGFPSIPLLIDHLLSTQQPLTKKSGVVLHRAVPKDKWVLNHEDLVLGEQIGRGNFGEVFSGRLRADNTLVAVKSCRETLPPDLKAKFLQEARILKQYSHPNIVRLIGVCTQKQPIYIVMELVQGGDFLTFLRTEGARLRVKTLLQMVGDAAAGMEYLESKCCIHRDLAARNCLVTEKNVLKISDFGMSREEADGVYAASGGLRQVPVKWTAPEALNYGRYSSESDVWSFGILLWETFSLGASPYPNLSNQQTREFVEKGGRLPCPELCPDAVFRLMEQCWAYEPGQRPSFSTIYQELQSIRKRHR

[8] = target: Fyn (UniProt P06241); experiment: as above
Chain of Fyn (P06241 whole entry, looked up): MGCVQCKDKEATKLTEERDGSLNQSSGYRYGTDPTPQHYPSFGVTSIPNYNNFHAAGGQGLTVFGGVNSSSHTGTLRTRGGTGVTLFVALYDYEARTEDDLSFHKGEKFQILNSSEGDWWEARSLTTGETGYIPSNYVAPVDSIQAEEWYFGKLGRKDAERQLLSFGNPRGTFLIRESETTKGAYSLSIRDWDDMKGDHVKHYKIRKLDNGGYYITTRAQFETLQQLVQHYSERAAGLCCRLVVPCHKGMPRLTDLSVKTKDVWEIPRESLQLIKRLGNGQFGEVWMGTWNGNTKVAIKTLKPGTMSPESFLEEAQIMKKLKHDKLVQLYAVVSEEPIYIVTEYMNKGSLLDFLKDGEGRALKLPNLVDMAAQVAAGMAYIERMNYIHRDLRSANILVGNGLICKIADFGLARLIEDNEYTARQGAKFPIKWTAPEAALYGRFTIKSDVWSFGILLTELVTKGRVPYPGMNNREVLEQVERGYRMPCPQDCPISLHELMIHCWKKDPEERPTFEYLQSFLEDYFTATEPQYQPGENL

[9] = target: Hck (UniProt P08631); experiment: as above
[10] = target: Jak2 (UniProt O60674); experiment: as above
[11] = target: MERTK (UniProt Q12866); experiment: as above
[12] = test system: c-Abl (mouse); experiment: as above
[13] = test system: c-Src; experiment: as above
[14] = target: Grb2 SH2 (UniProt P62993); experiment: SH2 binding enrichment of the phosphorylated peptide, bacterial display (enrichment ratio); higher = better substrate or ligand; peptides without Tyr show the background
[15] = target: SHP2-C SH2; experiment: as above
[16] = target: c-Src SH2; experiment: as above
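Throughout, for SH2 binding enrichment of the phosphorylated peptide, bacterial display: peptide library displayed on the E. coli surface as eCPX fusions, selected cells deep-sequenced, score is each peptide's frequency after selection divided by its frequency in the input.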
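Throughout, for phosphorylation enrichment, bacterial display: 11-residue human phosphosite peptides and single-mutation variants displayed on the E. coli surface, counted by deep sequencing, each peptide's frequency after selection divided by its frequency in the unselected input library; frequency after pTyr selection over input frequency; kinase dosed for 20-30% of maximal phosphorylation in three min.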

Chain of EPHB2 (P29323 whole entry, looked up): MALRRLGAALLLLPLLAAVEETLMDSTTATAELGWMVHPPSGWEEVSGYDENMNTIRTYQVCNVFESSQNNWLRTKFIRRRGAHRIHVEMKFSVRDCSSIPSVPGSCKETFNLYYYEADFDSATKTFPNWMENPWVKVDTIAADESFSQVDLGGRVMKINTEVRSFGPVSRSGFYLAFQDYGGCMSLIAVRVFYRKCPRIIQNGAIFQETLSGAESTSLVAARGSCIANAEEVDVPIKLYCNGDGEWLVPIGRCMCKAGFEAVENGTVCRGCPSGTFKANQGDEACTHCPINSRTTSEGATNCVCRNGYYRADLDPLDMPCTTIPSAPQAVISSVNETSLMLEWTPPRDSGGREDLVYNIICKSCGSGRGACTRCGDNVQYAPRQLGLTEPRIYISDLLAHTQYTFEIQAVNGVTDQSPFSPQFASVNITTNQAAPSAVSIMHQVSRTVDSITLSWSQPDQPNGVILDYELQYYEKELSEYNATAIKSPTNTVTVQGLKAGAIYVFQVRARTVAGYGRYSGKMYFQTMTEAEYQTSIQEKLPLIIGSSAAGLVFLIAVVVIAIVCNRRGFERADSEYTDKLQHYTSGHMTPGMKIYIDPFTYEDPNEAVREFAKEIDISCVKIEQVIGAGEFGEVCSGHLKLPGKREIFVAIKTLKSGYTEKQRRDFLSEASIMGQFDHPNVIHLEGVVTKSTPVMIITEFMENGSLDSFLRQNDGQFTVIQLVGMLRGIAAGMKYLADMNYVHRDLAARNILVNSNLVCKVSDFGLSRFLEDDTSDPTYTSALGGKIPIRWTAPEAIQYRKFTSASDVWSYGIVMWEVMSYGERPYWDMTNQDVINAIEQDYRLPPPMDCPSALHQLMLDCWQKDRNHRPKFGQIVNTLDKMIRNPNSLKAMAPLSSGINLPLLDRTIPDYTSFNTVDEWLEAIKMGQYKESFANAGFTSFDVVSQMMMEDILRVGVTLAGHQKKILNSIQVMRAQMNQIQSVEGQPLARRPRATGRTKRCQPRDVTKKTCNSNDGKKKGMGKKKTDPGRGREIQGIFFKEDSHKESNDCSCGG
Chain of EPHB1 (P54762 whole entry, looked up): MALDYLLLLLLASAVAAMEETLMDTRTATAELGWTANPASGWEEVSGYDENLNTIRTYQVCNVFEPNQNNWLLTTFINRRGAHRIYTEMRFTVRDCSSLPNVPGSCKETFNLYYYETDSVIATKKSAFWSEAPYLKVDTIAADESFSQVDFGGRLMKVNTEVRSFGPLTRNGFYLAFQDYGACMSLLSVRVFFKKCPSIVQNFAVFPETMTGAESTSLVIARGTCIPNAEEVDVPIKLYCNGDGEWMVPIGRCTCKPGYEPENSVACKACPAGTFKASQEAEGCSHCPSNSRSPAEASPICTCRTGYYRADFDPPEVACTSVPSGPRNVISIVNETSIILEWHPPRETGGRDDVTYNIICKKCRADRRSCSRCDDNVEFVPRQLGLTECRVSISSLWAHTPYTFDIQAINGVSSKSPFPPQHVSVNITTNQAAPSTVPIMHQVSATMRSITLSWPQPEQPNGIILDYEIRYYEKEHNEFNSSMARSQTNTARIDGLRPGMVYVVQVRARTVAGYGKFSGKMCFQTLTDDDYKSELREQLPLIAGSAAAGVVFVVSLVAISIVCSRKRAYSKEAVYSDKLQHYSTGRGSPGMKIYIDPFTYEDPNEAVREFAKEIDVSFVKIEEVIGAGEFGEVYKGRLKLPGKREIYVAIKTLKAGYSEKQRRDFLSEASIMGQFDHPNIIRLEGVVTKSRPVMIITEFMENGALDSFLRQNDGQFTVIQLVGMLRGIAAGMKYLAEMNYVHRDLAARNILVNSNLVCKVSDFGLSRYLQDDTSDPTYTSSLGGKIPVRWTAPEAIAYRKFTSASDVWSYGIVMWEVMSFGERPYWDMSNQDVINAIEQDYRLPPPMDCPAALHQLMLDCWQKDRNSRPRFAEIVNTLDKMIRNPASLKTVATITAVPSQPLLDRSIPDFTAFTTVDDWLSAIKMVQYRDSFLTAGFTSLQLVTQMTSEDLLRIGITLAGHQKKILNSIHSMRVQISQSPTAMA

Sequence	SH2 binding enrichment [14]	SH2 binding enrichment [15]	SH2 binding enrichment [16]	phosphorylation enrichment [1]	phosphorylation enrichment [2]	phosphorylation enrichment [3]	phosphorylation enrichment [4]	phosphorylation enrichment [5]	phosphorylation enrichment [6]	phosphorylation enrichment [7]	phosphorylation enrichment [8]	phosphorylation enrichment [9]	phosphorylation enrichment [10]	phosphorylation enrichment [11]	phosphorylation enrichment [12]	phosphorylation enrichment [13]
CVGGFYGGCNE [CTSC_Y352_Y347C]	1.01	0.748	0.908	0.81	0.548	0.625	0.439	0.653	0.566	0.854	0.678	0.838	0.636	0.585	0.471	1.88
DDEESYENVPR [FCRL3_Y722_N721S]	0.935	0.77	0.672	1.12	0.466	0.548	0.475	0.666	0.427	0.969	0.516	0.481	1.06	0.47	0.687	0.462
DDSSAYRSVDE [BCKDHA_Y345]	0.794	0.765	0.886	1.16	0.671	0.528	0.569	0.707	0.721	1.29	0.547	0.553	1.12	0.485	1.01	0.568
DEDFLCREELA [POR_Y575_Y575C_YF]	0.8	0.734	0.543	1.25	0.701	0.657	0.572	0.846	0.486	1.38	0.528	0.629	1.33	0.501	0.821	0.613
DEEDFYQGSME [ASCC1_Y36]	0.572	0.575	0.427	1.46	0.761	0.595	0.549	0.953	0.798	1.54	0.598	0.654	1.54	0.524	0.889	0.603
DENWFYTRAAS [RPS19_Y54]	0.821	0.816	0.661	1.13	0.547	0.517	0.402	0.673	0.45	1.11	0.454	0.382	1.11	0.401	1.34	0.418
DESEDCRDTVV [CNNM3_Y456_Y456C]	0.97	0.887	0.672	1.22	0.788	0.597	0.589	0.723	0.515	1.11	0.528	0.587	1.03	0.518	0.777	0.474
DFLSSYSAVNE [OAT_Y85_Q90E]	0.864	0.902	2.35	0.896	0.504	0.596	0.55	0.685	0.525	0.953	0.531	0.554	0.745	0.49	0.566	0.468
DFPGNYSGFDD [POLR1C_Y33_YF]	0.839	0.815	0.806	0.858	0.927	0.531	0.456	0.637	0.408	0.899	0.55	0.481	0.676	0.376	0.588	0.548
DHKRQYELLKL [KIF4B_Y684_R680H]	0.79	0.76	2.31	0.472	0.448	0.429	0.342	0.52	0.505	0.697	0.395	0.415	0.514	0.367	0.511	0.411
DHTVNYVLKCR [PLEKHG4_Y1068_R1064H]	0.67	0.63	0.346	1.18	0.699	0.677	0.602	0.855	0.512	1.38	0.479	0.532	1.09	0.419	0.859	0.409
DLDTDYGSGYP [RNASEH2A_Y206]	0.816	0.565	0.439	1.36	0.691	0.648	0.689	0.879	0.682	1.47	0.852	0.589	1.14	0.554	1.21	0.652
DNAFQYMLTDR [MYH7_Y164_YF]	0.923	0.767	0.685	0.955	0.44	0.496	0.461	0.584	0.472	1.02	0.47	0.494	0.738	0.374	0.47	0.543
DNAYQYMLTDR [MYH7_Y164]	0.7	0.664	1.34	1.23	0.61	0.461	3.6	2.3	2.74	0.859	0.658	0.608	0.85	1.27	0.526	0.767
DPGVSYCTREE [PDHA1_Y301_R302C]	1.08	0.968	0.581	1.12	0.643	0.749	0.576	1.12	0.481	1.12	0.606	0.688	1.1	0.451	0.714	0.449

Now from value to sequence, other results behind:

SH2 binding enrichment [14]	SH2 binding enrichment [15]	SH2 binding enrichment [16]	Sequence	phosphorylation enrichment [1]	phosphorylation enrichment [2]	phosphorylation enrichment [3]	phosphorylation enrichment [4]	phosphorylation enrichment [5]	phosphorylation enrichment [6]	phosphorylation enrichment [7]	phosphorylation enrichment [8]	phosphorylation enrichment [9]	phosphorylation enrichment [10]	phosphorylation enrichment [11]	phosphorylation enrichment [12]	phosphorylation enrichment [13]
0.975	1.08	0.756	CTTIHYNFMFN [TP53_Y234_C238F_YF]	1.27	0.786	0.684	0.676	0.945	0.789	1.61	0.52	0.569	1.34	0.595	1.04	0.586
1.22	1.24	1.7	CTTIHYNHMCN [TP53_Y234_Y236H]	0.692	0.445	0.456	0.432	0.506	0.369	0.796	0.455	0.414	0.688	0.476	0.574	0.422
1.01	1.06	2.42	CTTIHYNSMCN [TP53_Y234_Y236S]	0.849	0.514	0.645	0.486	0.627	0.467	0.905	0.464	0.561	0.603	0.42	0.544	0.396
1.45	1.64	3.07	CTTIHYNYMCK [TP53_Y234_N239K]	0.736	0.54	0.562	0.547	0.61	0.5	0.826	0.482	0.473	0.674	0.456	0.551	0.371
1.42	2.78	4.38	CTTIHYNYMCT [TP53_Y234_N239T]	0.936	2.71	1.02	0.899	0.817	0.915	1	0.569	0.545	0.657	0.784	0.656	0.5
0.926	0.842	1.3	CTTIHYNYMGN [TP53_Y234_C238G]	0.915	0.85	0.62	0.532	0.653	0.763	0.987	0.402	0.462	0.865	0.633	0.657	0.425
1.78	1.9	2.4	CTTILYNYMCN [TP53_Y234_H233L]	1.18	0.958	0.766	0.94	0.894	1.2	1.06	0.745	1.14	1.16	2.36	0.615	1.24
0.784	0.743	0.524	DAASNYARGHY [TUBA3E_Y103]	0.522	0.383	0.524	0.495	0.463	0.342	0.519	0.353	0.475	0.428	0.44	0.533	0.43
0.78	0.672	1.01	DENWFYTRPAS [RPS19_Y54_A57P]	1.46	0.59	0.55	0.496	0.734	0.676	1.07	0.497	0.565	1.43	0.477	0.673	0.489
0.978	1.82	2.62	DGDTRYSTFSE [TKTL1_Y318]	0.837	0.609	0.487	0.41	0.669	0.481	0.879	0.467	0.559	0.849	0.451	0.764	0.5
0.82	0.685	0.528	DKMEAYNIDET [TEKT4_Y210]	1.32	0.604	0.618	0.56	0.83	0.584	1.29	0.568	0.583	1.04	0.459	0.755	0.492
0.906	0.717	9.61	DLRTGYSVPYG [TGM1_Y370_Y365D]	0.721	0.409	0.411	0.553	0.592	0.456	0.665	0.392	0.459	0.663	0.399	0.568	0.384
5.64	0.993	0.646	DMLTLYVNTAA [SMCHD1_Y403_Q400L]	1.4	0.758	0.775	0.569	0.855	0.535	1.36	0.457	0.557	1.13	0.444	0.766	0.524
0.881	0.628	1.44	DPNQQYYIAMD [TBX15_Y159_H156N]	1.12	0.875	0.719	3.98	2.95	0.487	0.992	0.566	0.613	0.959	1.65	0.571	0.812
